Six molecules from PMC10397247 can be followed below.

In one experiment the target is T1, P6p.
T1 chain: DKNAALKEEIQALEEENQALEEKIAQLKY
Nature of the experiment: two-hybrid library CCmax.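 Also: natural log of median RNA to DNA barcode read ratio; higher means stronger binding.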 The note with it: mean of both orientations.

A further experiment concerns the target T2, Core_NIII-es_KEEE.
T2 chain: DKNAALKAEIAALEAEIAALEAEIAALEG
Briefly: two-hybrid library CCmax.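 Also: natural log of median RNA to DNA barcode read ratio; higher means stronger binding.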 The note with it: mean of both orientations.

For a further experiment, the target named is T3, O2-bA.
T3 chain: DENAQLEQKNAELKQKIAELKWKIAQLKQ
Nature of the experiment: two-hybrid library CCNG1.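 Also: natural log of median RNA to DNA barcode read ratio; higher means stronger binding.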

Another experiment deals with T4, O11-bA.
T4 chain: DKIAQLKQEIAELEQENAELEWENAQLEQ
Briefly: two-hybrid library CCNG1.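 Also: natural log of median RNA to DNA barcode read ratio; higher means stronger binding.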

The next experiment addresses T5, O5-bA.
T5 chain: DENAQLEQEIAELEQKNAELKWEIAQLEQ
Briefly: two-hybrid library CCNG1.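 Also: natural log of median RNA to DNA barcode read ratio; higher means stronger binding.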

For a further experiment, the target named is T6, O6-bA.
T6 chain: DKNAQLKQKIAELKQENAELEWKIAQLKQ
Briefly: two-hybrid library CCNG1.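 Also: natural log of median RNA to DNA barcode read ratio; higher means stronger binding.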

For the next experiment, the target named is T7, O8-bA.
T7 chain: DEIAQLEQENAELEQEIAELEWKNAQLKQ
Briefly: two-hybrid library CCNG1.

For the next experiment, the target named is T8, O12-bA.
T8 chain: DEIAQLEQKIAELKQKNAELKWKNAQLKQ
Briefly: two-hybrid library CCNG1.

The target in the next experiment is T9, O7-bA.
T9 chain: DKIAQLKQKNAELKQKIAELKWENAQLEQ
Briefly: two-hybrid library CCNG1.

In a further experiment the target is T10, O1-bA.
T10 chain: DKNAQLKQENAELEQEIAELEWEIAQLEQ
Briefly: two-hybrid library CCNG1.

In another experiment the target is T11, O15-bA.
T11 chain: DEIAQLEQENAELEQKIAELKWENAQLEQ
Nature of the experiment: two-hybrid library CCNG1.

Another experiment addresses T12, O10-bA.
T12 chain: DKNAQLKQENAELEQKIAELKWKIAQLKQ
Briefly: two-hybrid library CCNG1.

The next experiment addresses T13, O3-bA.
T13 chain: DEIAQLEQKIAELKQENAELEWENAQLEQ
Nature of the experiment: two-hybrid library CCNG1.

The next experiment concerns the target T14, O16-bA.
T14 chain: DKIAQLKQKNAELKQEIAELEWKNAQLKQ
Briefly: two-hybrid library CCNG1.

The target of another experiment is T15, O13-bA.
T15 chain: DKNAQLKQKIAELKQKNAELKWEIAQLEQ
Nature of the experiment: two-hybrid library CCNG1.

The next experiment has as its target T16, O9-bA.
T16 chain: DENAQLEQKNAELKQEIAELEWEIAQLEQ
Briefly: two-hybrid library CCNG1.

For another experiment, the target named is T17, O4-bA.
T17 chain: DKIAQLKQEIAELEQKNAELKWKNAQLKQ
Nature of the experiment: two-hybrid library CCNG1.

The next experiment has as its target T18, O14-bA.
T18 chain: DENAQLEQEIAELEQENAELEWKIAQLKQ
Briefly: two-hybrid library CCNG1.

A further experiment deals with T19, 4H3961-bN.
T19 chain: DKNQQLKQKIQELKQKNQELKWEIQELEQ
Briefly: two-hybrid library CCNG1. The note with it: mean of both orientations.

The next experiment deals with T20, 4H2619-bN.
T20 chain: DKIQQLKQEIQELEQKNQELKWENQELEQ
Nature of the experiment: two-hybrid library CCNG1.

In the next experiment the target is T21, 4H1072-bN.
T21 chain: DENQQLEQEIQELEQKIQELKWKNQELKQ
Nature of the experiment: two-hybrid library CCNG1.

The target in a further experiment is T22, 4H2745-bN.
T22 chain: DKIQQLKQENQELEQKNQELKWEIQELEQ
Nature of the experiment: two-hybrid library CCNG1.

In a further experiment the target is T23, 4H344-bN.
T23 chain: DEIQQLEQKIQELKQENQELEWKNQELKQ
Briefly: two-hybrid library CCNG1.

The next experiment concerns the target T24, 4H1046-bN.
T24 chain: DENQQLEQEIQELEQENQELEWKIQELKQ
Nature of the experiment: two-hybrid library CCNG1. The note with it: mean of both orientations.

The target of another experiment is T25, 4H470-bN.
T25 chain: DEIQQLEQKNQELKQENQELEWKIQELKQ
Briefly: two-hybrid library CCNG1.

For a further experiment, the target named is T26, 4H2568-bN.
T26 chain: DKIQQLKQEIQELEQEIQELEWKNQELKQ
Briefly: two-hybrid library CCNG1.

Another experiment deals with T27, 4H363-bN.
T27 chain: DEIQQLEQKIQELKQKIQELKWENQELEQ
Nature of the experiment: two-hybrid library CCNG1.

In another experiment the target is T28, 4H3907-bN.
T28 chain: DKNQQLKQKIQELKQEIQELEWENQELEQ
Briefly: two-hybrid library CCNG1.

The target in another experiment is T29, 4H2473-bA.
T29 chain: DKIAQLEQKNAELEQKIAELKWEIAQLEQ
Briefly: two-hybrid library CCNG1.

The target in the next experiment is T30, 4H477-bA.
T30 chain: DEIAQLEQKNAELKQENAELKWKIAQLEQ
Nature of the experiment: two-hybrid library CCNG1.

The next experiment deals with T31, 4H3057-bA.
T31 chain: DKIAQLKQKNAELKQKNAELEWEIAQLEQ
Briefly: two-hybrid library CCNG1.

The next experiment concerns the target T32, 4H2717-bA.
T32 chain: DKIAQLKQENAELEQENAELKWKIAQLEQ
Briefly: two-hybrid library CCNG1.

The target of another experiment is T33, 4H2503-bA.
T33 chain: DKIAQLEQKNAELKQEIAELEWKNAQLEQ
Briefly: two-hybrid library CCNG1.

The next experiment deals with T34, 4H2692-bA.
T34 chain: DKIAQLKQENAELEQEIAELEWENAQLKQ
Nature of the experiment: two-hybrid library CCNG1.

For another experiment, the target named is T35, 4H2588-bA.
T35 chain: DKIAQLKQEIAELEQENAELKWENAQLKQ
Nature of the experiment: two-hybrid library CCNG1.

Another experiment addresses T36, 4H2839-bA.
T36 chain: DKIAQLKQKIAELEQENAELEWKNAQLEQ
Briefly: two-hybrid library CCNG1.

The next experiment has as its target T37, 4H3277-bA.
T37 chain: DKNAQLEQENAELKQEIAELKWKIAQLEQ
Nature of the experiment: two-hybrid library CCNG1.

The target of a further experiment is T38, 4H2143-bA.
T38 chain: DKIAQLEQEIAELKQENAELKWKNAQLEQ
Nature of the experiment: two-hybrid library CCNG1.

The next experiment has as its target T39, 4H492-bA.
T39 chain: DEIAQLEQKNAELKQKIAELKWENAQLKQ
Nature of the experiment: two-hybrid library CCNG1.

In another experiment the target is T40, 4H348-bA.
T40 chain: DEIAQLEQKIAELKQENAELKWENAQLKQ
Nature of the experiment: two-hybrid library CCNG1.

A further experiment has as its target T41, 4H319-bA.
T41 chain: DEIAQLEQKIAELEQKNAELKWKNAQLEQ
Briefly: two-hybrid library CCNG1.

The next experiment has as its target T42, 4H121-bA.
T42 chain: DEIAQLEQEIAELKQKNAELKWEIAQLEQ
Briefly: two-hybrid library CCNG1.

The next experiment has as its target T43, 4H2223-bA.
T43 chain: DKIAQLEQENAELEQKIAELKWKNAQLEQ
Nature of the experiment: two-hybrid library CCNG1.

Another experiment deals with T44, 4H2134-bA.
T44 chain: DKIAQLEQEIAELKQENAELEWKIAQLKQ
Nature of the experiment: two-hybrid library CCNG1.

Another experiment concerns the target T45, 4H741-bA.
T45 chain: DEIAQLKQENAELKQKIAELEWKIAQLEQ
Briefly: two-hybrid library CCNG1.

A further experiment deals with T46, 4H2915-bA.
T46 chain: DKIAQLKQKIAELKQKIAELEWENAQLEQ
Briefly: two-hybrid library CCNG1.

The next experiment deals with T47, 4H40-bA.
T47 chain: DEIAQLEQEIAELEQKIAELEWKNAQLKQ
Nature of the experiment: two-hybrid library CCNG1.

The next experiment has as its target T48, 4H2438-bA.
T48 chain: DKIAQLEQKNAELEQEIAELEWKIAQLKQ
Briefly: two-hybrid library CCNG1.

The next experiment concerns the target T49, 4H2444-bA.
T49 chain: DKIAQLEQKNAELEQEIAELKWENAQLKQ
Briefly: two-hybrid library CCNG1.

The next experiment has as its target T50, 4H182-bA.
T50 chain: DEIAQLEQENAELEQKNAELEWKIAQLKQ
Nature of the experiment: two-hybrid library CCNG1.

A further experiment deals with T51, Core_NINN-es_KKEK.
T51 chain: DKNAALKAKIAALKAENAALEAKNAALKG
Nature of the experiment: two-hybrid library CCmax. The note with it: mean of both orientations.

B1: P5p (peptide)
chain: DENAALEEKIAQLKQKNAALKEEIQALEY
With B1, in the experiment with P6p, the interaction score came out at 1.9.

B2: Core_NIII-es_EKKK (peptide)
chain: DENAALEAKIAALKAKIAALKAKIAALKG
In the experiment with Core_NIII-es_KEEE, B2 had an interaction score of 2.17.

B3: O1-bA (peptide)
chain: DKNAQLKQENAELEQEIAELEWEIAQLEQ
As to B3, the interaction score in the experiment with O2-bA was 2.31; with O11-bA, -1.05; in the experiment with O5-bA, -1.23; with O6-bA, -0.599; in the experiment with O8-bA, -1.59; in the experiment with O12-bA it was -0.825. Moreover, the interaction score with O7-bA is -0.0848; in the experiment with O1-bA, -0.889; with O15-bA, -1.03; with O10-bA, 1.21; with O3-bA, -1.08; with O16-bA it was -0.581. The interaction score is 0.415 in the experiment with O13-bA, -0.823 with O9-bA, -1.53 with O4-bA and -1.02 with O14-bA.

B4: 4H1046-bN (peptide)
chain: DENQQLEQEIQELEQENQELEWKIQELKQ
B4: the interaction score in the experiment with 4H3961-bN was 1.37; with 4H2619-bN, -1.35; with 4H1072-bN, -0.367; with 4H2745-bN, -0.112; with 4H344-bN, 0.965; with 4H1046-bN, -0.38. Moreover, the interaction score was 0.0233 with 4H470-bN, 0.836 with 4H2568-bN, -0.252 in the experiment with 4H363-bN and -0.5 with 4H3907-bN.

B5: 4H121-bA (peptide)
chain: DEIAQLEQEIAELKQKNAELKWEIAQLEQ
For B5, the interaction score with 4H2473-bA was -1.11; with 4H477-bA it was -1.12; with 4H3057-bA it was 0.0584; with 4H2717-bA, -0.497; with 4H2503-bA, -1.32; with 4H2692-bA it was -0.366. The interaction score in the experiment with 4H2588-bA was -0.283; with 4H2839-bA, 0.693; with 4H3277-bA it was -1.51; in the experiment with 4H2143-bA, -0.624; with 4H492-bA, -1.44; with 4H348-bA it was -1.19. The interaction score is -1.51 in the experiment with 4H319-bA; -0.103 in the experiment with 4H121-bA; 0.764 in the experiment with 4H2223-bA; 1.92 with 4H2134-bA; -1.09 in the experiment with 4H741-bA; -0.0952 with 4H2915-bA. Moreover, the interaction score was -0.579 with 4H40-bA, 1.56 in the experiment with 4H2438-bA, -3.87 in the experiment with 4H2444-bA and -1.13 with 4H182-bA.

B6: Core_NINN-es_EEKE (peptide)
chain: DENAALEAEIAALEAKNAALKAENAALEG
Molecule B6 displayed an interaction score in the experiment with Core_NINN-es_KKEK of 1.78.
